Reference: article PMC3170320, “Minimal Antizyme Peptide Fully Functioning in the Binding and Inhibition of Ornithine Decarboxylase and Antizyme Inhibitor” (PLoS ONE, 2011)

Experiments:
human AZI = assay: AZ peptide-AZI complex size distribution by analytical ultracentrifugation; type: binding; conditions: Table 2
Experimental: A Beckman Optima XL-A analytical ultracentrifuge was used for sedimentation velocity experiments. Reference and sample sectors in the centerpiece were filled with buffer (400 µl) and sample protein (0.3 mg/mL, 380 µl), respectively, and then the cell was built up in an An-50 Ti rotor. Sedimentation velocity experiments were performed at 20°C with a rotor speed of 42,000 rpm. The data were traced by absorbance at 280 nm in continuous mode, with a time interval of 420 s and a step size of 0.002 cm. A total of 20–30 scans at different time points were collected and fitted to a continuous size distribution model using the program SEDFIT [54]–[55]. All size distributions were calculated at 0.1 to 20 S with a confidence level of p = 0.95 and a resolution N of 200.
In order to determine the dissociation constants (K d) of the AZ peptide-ODC and AZ peptide-AZI complexes, sedimentation velocity experiments were performed at different concentrations of AZ or AZ peptide with a constant concentration of human ODC or AZI. The K d values of the AZ peptide-ODC and AZ peptide-AZI complexes were calculated by a global fitting of all sedimentation data in the AB hetero-association model in the SEDPHAT program [56]–[57]. The partial specific volumes of the proteins, the solvent densities, and the viscosity were calculated by the SEDNTERP program. […]

AZ = conditions: ref [20], [46]–[48]; cited from earlier work
Description: Another protein that regulates ODC by binding to AZ is called antizyme inhibitor (AZI). AZI is homologous to ODC, but lacks ODC enzymatic activity, [43]–[46]. […] AZI can bind to all isoforms of mammalian AZ [32], [42].

AZ peptide-inhibited ODC = assay: Rescue of AZ-inhibited ODC enzyme activity by AZI; type: biochemical, human; conditions: Figure 4
Experimental: Figure 4 Relative ODC enzyme activities in the presence of AZ and AZI. ODC enzymes equilibrated with equimolar AZI were inhibited by various concentrations of AZ peptides. The concentrations of AZI and ODC were fixed at 18.9 µg/mL and 20 µg/mL, respectively (the ratio of AZI monomer versus ODC monomer was fixed at 1). Panels A–H show the inhibition curves of ODC for each AZ peptide in the absence (closed circles) and in the presence (open circles) of AZI.
For enzyme rescue experiments with AZI, the ODC enzyme was first pre-incubated with AZ at a molar ratio of 3.5 AZ monomers to 1 ODC monomer to achieve 80% enzyme inhibition. The inhibited ODC activity was recovered by increasing the AZI concentration.

ODC degradation = conditions: cited from earlier work
Description: (§1) There are at least four AZ isozymes with different binding affinities for ODC [31]–[32]. Isoform 1, AZ-1, is present in all tissues and is the major isoform that participates in ODC degradation. […] The C-terminal region of AZ-1 interacts with ODC to inhibit enzyme activity, and the N-terminal region of AZ-1 controls the degradation of ODC [34]–[36]. AZ-2 has a distribution similar to that of AZ-1 in all of the tissues and cells examined thus far, but its expr ...

ODC = conditions: cited from earlier work
Description: as §1

B1: Antizyme inhibitor (protein)
chain: MKGFIDDANYSVGLLDEGTNLGNVIDNYVYEHTLTGKNAFFVGDLGKIVKKHSQWQNVVAQIKPFYTVKCNSAPAVLEILAALGTGFACSSKNEMALVQELGVPPENIIYISPCKQVSQIKYAAKVGVNILTCDNEIELKKIARNHPNAKVLLHIATEDNIGGEEGNMKFGTTLKNCRHLLECAKELDVQIIGVKFHVSSACKESQVYVHALSDARCVFDMAGEIGFTMNMLDIGGGFTGTEFQLEEVNHVISPLLDIYFPEGSGVKIISEPGSYYVSSAFTLAVNIIAKKVVENDKFPSGVEKTGSDEPAFMYYMNDGVYGSFASKLSEDLNTIPEVHKKYKEDEPLFTSSLWGPSCDELDQIVESCLLPELNVGDWLIFDNMGADSFHEPSAFNDFQRPAIYYMMSFSDWYEMQDAGITSDSMMKNFFFVPSCIQLSQEDSFSAEA
modifications: left off: His6, N-terminal, state not stated
Affinity of AZI for AZ peptides versus ODC (in words) (human AZI): can bind to AZ peptides with a higher affinity than ODC | Affinity of AZI for AZ (AZ): binds to AZ with a higher affinity than ODC | Rescue of ODC enzyme activity by AZI (in words) (AZ peptide-inhibited ODC): can rescue AZ peptide-inhibited ODC enzyme activity

B2: AZ-2: AZ isozyme 2, distribution similar to AZ-1, lower expression level (protein, UniProt O95190 1-189, looked up)
Ornithine decarboxylase …: MINTQDSSILPLSNCPQLQCCRHIVPGPLWCSDAPHPLSKIPGGRGGGRDPSLSALIYKDEKLTVTQDLPVNDGKPHIVHFQYEVTEVKVSSWDAVLSSQSLFVEIPDGLLADGSKEGLLALLEFAEEKMKVNYVFICFRKGREDRAPLLKTFSFLGFEIVRPGHPCVPSRPDVMFMVYPLDQNLSDED
ODC degradation, AZ-2 (ODC degradation; ref [38]–[39]): does not promote ODC degradation | Inhibition of ODC activity, AZ-2 (ODC; ref [38]–[39]): can inhibit ODC enzyme activity

B3: AZ-3: AZ isozyme 3, germ cells of testes (protein, UniProt Q9UMX2 1-235, looked up)
Ornithine decarboxylase …: MPCKRCRPSVYSLSYIKRGKTRNYLYPIWSPYAYYLYCYKYRITLREKMLPRCYKSITYKEEEDLTLQPRSCLQCSESLVGLQEGKSTEQGNHDQLKELYSAGNLTVLATDPLLHQDPVQLDFHFRLTSQTSAHWHGLLCDRRLFLDIPYQALDQGNRESLTATLEYVEEKTNVDSVFVNFQNDRNDRGALLRAFSYMGFEVVRPDHPALPPLDNVIFMVYPLERDVGHLPSEPP
ODC degradation, AZ-3 (ODC degradation; ref [41]): fails to stimulate ODC degradation | Inhibition of ODC activity, AZ-3 (ODC; ref [41]): poorly inhibits ODC activity
